From the Immune Epitope Database (IEDB)

How the values were obtained:
[1] = molecular target: HLA-B*08:01; test: IEDB peptide-MHC binding, purified MHC/competitive/radioactivity; filed as Kd, often an IC50 or EC50 that approximates it; ≥ and ≤ were set here for values at or beyond the usual limits of such assays
[2] = molecular target: HLA-B*15:01; test: as above; settings: source organism: Vaccinia virus WR
[3] = molecular target: HLA-A*03:01; test: IEDB peptide-MHC binding, purified MHC/direct/fluorescence; filed as Kd, often an IC50 or EC50 that approximates it; ≥ and ≤ were set here for values at or beyond the usual limits of such assays
[4] = molecular target: HLA-A*31:01; test: as above
[5] = molecular target: HLA-B*07:02; test: as above
[6] = molecular target: HLA-B*27:05; test: as above
[7] = molecular target: HLA-A*24:03; test: as above
[8] = molecular target: HLA-B*58:01; test: as above
[9] = molecular target: HLA-A*69:01; test: as above
[10] = molecular target: HLA-B*08:01; test: as above
[11] = molecular target: HLA-A*02:01; test: as above
[12] = molecular target: HLA-A*26:01; test: as above
[13] = molecular target: HLA-B*15:01; test: as above
[14] = molecular target: HLA-B*40:01; test: as above
[15] = molecular target: HLA-B*44:02; test: as above
[16] = molecular target: HLA-A*11:01; test: as above
[17] = molecular target: HLA-B*07:02; test: IEDB peptide-MHC binding, purified MHC/competitive/radioactivity; filed as Kd, often an IC50 or EC50 that approximates it; ≥ and ≤ were set here for values at or beyond the usual limits of such assays
[18] = molecular target: HLA-A*01:01; test: IEDB peptide-MHC binding, purified MHC/direct/fluorescence; filed as Kd, often an IC50 or EC50 that approximates it; ≥ and ≤ were set here for values at or beyond the usual limits of such assays
[19] = molecular target: HLA-A*02:06; test: IEDB peptide-MHC binding, purified MHC/competitive/radioactivity; filed as Kd, often an IC50 or EC50 that approximates it; ≥ and ≤ were set here for values at or beyond the usual limits of such assays
[20] = molecular target: HLA-A*02:02; test: as above
[21] = molecular target: HLA-A*02:03; test: as above
[22] = molecular target: HLA-A*23:01; test: as above
[23] = molecular target: HLA-A*24:02; test: as above
[24] = molecular target: HLA-A*29:02; test: as above
[25] = molecular target: HLA-A*26:01; test: as above
[26] = molecular target: HLA-A*30:02; test: as above
[27] = molecular target: HLA-A*01:01; test: as above
[28] = molecular target: HLA-A*68:01; test: as above; settings: source organism: SARS coronavirus Tor2
[29] = molecular target: HLA-A*03:01; test: as above; settings: source organism: SARS coronavirus Tor2
[30] = molecular target: HLA-A*31:01; test: as above; settings: source organism: SARS coronavirus Tor2
[31] = molecular target: HLA-A*33:01; test: as above; settings: source organism: SARS coronavirus Tor2
[32] = molecular target: HLA-A*11:01; test: as above; settings: source organism: SARS coronavirus Tor2
[33] = molecular target: HLA-A*30:01; test: as above; settings: source organism: Dengue virus 1 Brazil/97-11/1997
[34] = molecular target: HLA-A*02:01; test: IEDB peptide-MHC binding, purified MHC/competitive/fluorescence; filed as Kd, often an IC50 or EC50 that approximates it; ≥ and ≤ were set here for values at or beyond the usual limits of such assays; settings: source organism: Variola virus
[35] = source organism: Vaccinia virus WR
[36] = source organism: Dengue virus 3 Martinique/1243/1999
[37] = source organism: Vaccinia virus Copenhagen
[38] = source organism: Giardia intestinalis
[39] = source organism: Dengue virus 4 Philippines/H241/1956
[40] = source organism: Dengue virus 2 Jamaica/1409/1983
[41] = source organism: Rickettsia prowazekii
[42] = source organism: SARS coronavirus Tor2
[43] = source organism: Salmonella enterica
[44] = source organism: Salmonella enterica subsp. enterica serovar Typhi
[45] = source organism: Influenza A virus (A/Ann Arbor/6/1960(H2N2))
[46] = source organism: Dengue virus 1 Brazil/97-11/1997
[47] = source organism: Vibrio cholerae
[48] = source organism: Mammarenavirus guanaritoense

ANITHFCSF
Kd [1, 35]: 10.6 µM
Kd [2]: 0.015 µM

ERLQRKHGGM
Kd [1, 36]: 0.0922 µM

FNKGHFTRL
Kd [1, 37]: 0.0163 µM

FVMFGFCYL
Kd [1, 35]: 0.865 µM

GYTPGQQFY
Kd [3, 38]: ≥ 20 µM
Kd [4, 38]: ≥ 20 µM
Kd [5, 38]: ≥ 20 µM
Kd [6, 38]: ≥ 20 µM
Kd [7, 38]: 5.42 µM
Kd [8, 38]: ≥ 20 µM
Kd [9, 38]: ≥ 20 µM
Kd [10, 38]: ≥ 20 µM
Kd [11, 38]: ≥ 20 µM
Kd [12, 38]: ≥ 20 µM
Kd [13, 38]: ≥ 20 µM
Kd [14, 38]: ≥ 20 µM
Kd [15, 38]: ≥ 20 µM
Kd [16, 38]: ≥ 20 µM

HAQRIETWIL
Kd ([1]; source organism: Dengue virus 2 Peru/IQT2913/1996): 1.15 µM

HRRDLRLASM
Kd [1, 39]: 0.0112 µM

IKTTAKEVAL
Kd [1, 39]: 4.46 µM

ILCVPNAVIL
Kd [1, 40]: 5.54 µM

ILMDSIFVST
Kd [17, 37]: ≥ 69.6 µM

IQPQWIAASI
Kd [1, 39]: 0.858 µM

IYSAEFKNY
Kd [3, 41]: ≥ 20 µM
Kd [4, 41]: ≥ 20 µM
Kd [5, 41]: ≥ 20 µM
Kd [6, 41]: ≥ 20 µM
Kd [7, 41]: 1.41 µM
Kd [8, 41]: ≥ 20 µM
Kd [9, 41]: ≥ 20 µM
Kd [10, 41]: ≥ 20 µM
Kd [11, 41]: ≥ 20 µM
Kd [12, 41]: ≥ 20 µM
Kd [13, 41]: 20 µM
Kd [14, 41]: ≥ 20 µM
Kd [15, 41]: ≥ 20 µM
Kd [18, 41]: ≥ 20 µM
Kd [16, 41]: ≥ 20 µM

KYLPNGDYI
Kd ([7]; source organism: Vibrio parahaemolyticus): 0.0129 µM

LHRMDLGVPL
Kd [1, 39]: 1.01 µM

LTIPPTAGIL
Kd [1, 40]: 1.1 µM

LVMKDGRVL
Kd [17, 40]: 0.00107 µM

MLKRERNRV
Kd [1, 40]: 0.0529 µM

NLRCHSAHV
Kd [19, 35]: 8.03 µM
Kd [1, 35]: 0.00124 µM
Kd [20, 35]: 0.384 µM
Kd [21, 35]: 0.011 µM

NMLRIMASL
Kd [22, 42]: 10.9 µM
Kd [23, 42]: ≥ 32.2 µM
Kd [19, 42]: 0.05 µM
Kd [24, 42]: ≥ 36.9 µM
Kd [25, 42]: 18.2 µM
Kd [20, 42]: 0.0034 µM
Kd [21, 42]: 0.0375 µM
Kd [26, 42]: ≥ 100 µM
Kd [27, 42]: ≥ 26.3 µM

NTCDGNTFTY
Kd [28]: 1.06 µM
Kd [29]: 0.00225 µM
Kd [30]: 0.0334 µM
Kd [31]: 13.2 µM
Kd [22, 42]: 5.34 µM
Kd [23, 42]: 5.75 µM
Kd [24, 42]: ≥ 26 µM
Kd [25, 42]: ≥ 77.9 µM
Kd [26, 42]: ≥ 125 µM
Kd [27, 42]: ≥ 89.3 µM
Kd [32]: 0.0236 µM

QLAKRFSRG
Kd ([1]; source organism: Dengue virus 3 Singapore/8120/1995): 1.28 µM

RKLTSRETAL
Kd [1, 39]: 0.178 µM

RPQLGVGDV
Kd [3, 43]: ≥ 20 µM
Kd [4, 43]: ≥ 20 µM
Kd [5, 44]: 0.38 µM
Kd [6, 43]: ≥ 20 µM
Kd [7, 44]: 6.18 µM
Kd [8, 43]: ≥ 20 µM
Kd [9, 43]: ≥ 20 µM
Kd [10, 43]: ≥ 20 µM
Kd [11, 43]: ≥ 20 µM
Kd [12, 43]: ≥ 20 µM
Kd [13, 43]: ≥ 20 µM
Kd [14, 43]: ≥ 20 µM
Kd [15, 43]: ≥ 20 µM
Kd [18, 43]: ≥ 20 µM
Kd [16, 43]: ≥ 20 µM

RQEMASRGLW
Kd [22, 45]: 1.73 µM
Kd [23, 45]: 9.01 µM
Kd [24, 45]: 1.88 µM
Kd [25, 45]: ≥ 69.7 µM
Kd [26, 45]: 4.35 µM
Kd [27, 45]: ≥ 70.4 µM

RSRWSRKML
Kd [33]: 0.0904 µM
Kd [17, 46]: 0.0931 µM

SAEMRLLSI
Kd [1, 35]: 0.0205 µM

SLLFKTASG
Kd [1, 36]: 0.534 µM

SLLKNDVPL
Kd [1, 46]: 0.124 µM

SMHFYGWSL
Kd [34]: 0.303 µM
Kd [1, 35]: 0.00285 µM
Kd [2]: 0.063 µM

SVMPAWQEK
Kd [3, 47]: 0.0741 µM
Kd [5, 47]: ≥ 20 µM
Kd [6, 47]: ≥ 20 µM
Kd [7, 47]: 10.3 µM
Kd [8, 47]: ≥ 20 µM
Kd [9, 47]: ≥ 20 µM
Kd [10, 47]: ≥ 20 µM
Kd [11, 47]: ≥ 20 µM
Kd [12, 47]: ≥ 20 µM
Kd [13, 47]: ≥ 20 µM
Kd [14, 47]: ≥ 20 µM
Kd [15, 47]: ≥ 20 µM
Kd [18, 47]: ≥ 20 µM
Kd [16, 47]: 0.00501 µM

TFHLSIPNF
Kd ([7]; source organism: Mammarenavirus lassaense): 0.0345 µM

VFQPSTGNYV
Kd [22, 48]: 5.66 µM
Kd [23, 48]: 1.53 µM
Kd [24, 48]: ≥ 31.6 µM
Kd [25, 48]: ≥ 69.7 µM
Kd [26, 48]: 1.01 µM
Kd [27, 48]: ≥ 70.4 µM

VYDPLQPEL
Kd [22, 42]: 12.8 µM
Kd [23, 42]: ≥ 44.8 µM
Kd [24, 42]: 0.00842 µM
Kd [25, 42]: ≥ 77.9 µM
Kd [26, 42]: 0.302 µM
Kd [27, 42]: ≥ 78.1 µM

WKTWGKAKML
Kd [1, 40]: 3.8 µM

YYFMKFRRVF
Kd [22, 42]: 0.00151 µM
Kd [23, 42]: 0.00392 µM
Kd [24, 42]: 0.0028 µM
Kd [25, 42]: 1.75 µM
Kd [26, 42]: ≥ 22.2 µM
Kd [27, 42]: 3.18 µM
